Literature values in PMC11299584.

Target: ANGPTL3/8 complex (Homo sapiens) (UniProt Q9Y5C1)
Assay: SPR

Chain of UniProt Q9Y5C1 (Q9Y5C1 17-460, chain 1 of 2): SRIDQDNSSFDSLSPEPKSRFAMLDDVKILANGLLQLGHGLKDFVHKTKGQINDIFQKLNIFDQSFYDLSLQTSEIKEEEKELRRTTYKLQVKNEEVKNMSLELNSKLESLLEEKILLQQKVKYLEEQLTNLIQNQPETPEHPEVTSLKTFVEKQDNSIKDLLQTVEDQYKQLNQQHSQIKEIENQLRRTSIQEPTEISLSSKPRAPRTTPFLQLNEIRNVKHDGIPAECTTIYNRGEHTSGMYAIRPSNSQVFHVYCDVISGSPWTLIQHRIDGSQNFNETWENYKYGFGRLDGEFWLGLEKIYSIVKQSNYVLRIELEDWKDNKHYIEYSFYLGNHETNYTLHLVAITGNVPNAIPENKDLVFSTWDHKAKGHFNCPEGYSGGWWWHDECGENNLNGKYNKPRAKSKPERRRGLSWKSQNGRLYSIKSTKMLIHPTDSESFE
Chain of UniProt Q9Y5C1 (Q6UXH0 22-198, chain 2 of 2, further chain): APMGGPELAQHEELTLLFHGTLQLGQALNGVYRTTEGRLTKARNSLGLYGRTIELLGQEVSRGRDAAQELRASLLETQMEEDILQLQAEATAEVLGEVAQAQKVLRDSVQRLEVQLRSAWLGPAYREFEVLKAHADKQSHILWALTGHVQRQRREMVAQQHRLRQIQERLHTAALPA

- Kd: 530 pM
Substance: APOA5 (from UniProt Q8C7G5)
